In the Human Domainome abundance scans (Beltran et al. 2025):
± gives the uncertainty stated by the source.

B1: Homeobox protein cut-like 1, residues 941 to 1008; numbered along this chain, P39880 (parent)
chain: QEVDTIELTRQVKEKLAKNGICQRIFGEKVLGLSQGSVSDMLSRPKPWSKLTQKGREPFIRMQLWLNG

Variants of: B1
Test: abundance fitness (aPCA) (normalised: wild type 0, dead -1); higher = more abundant; growth selection in yeast, the domain comes from the species named
Settings: Homo sapiens
Variant QEVDTIELTRQVKEKLAKNGICQRIFGEKVLGLSQGSVSDMLSRPKPWSKLTQKGREPFIRMQLWLNP [G68P] has an abundance fitness of -0.576 ± 0.14.
With QEVDTIELTRQVKEKLAKNGICQRIFGEKVLGLSQGSVSDMLSRPKPWSKLTQKGREPFIRMQLWLNV [G68V] the abundance fitness was -0.565 ± 0.086.
For QEVDTIELTRQVKEKLAKNGICQRIFGEKVLGLSQGSVSDMLSRPKPWSKLTQKGREPFIRMQLWLNF [G68F], the abundance fitness was -0.265 ± 0.19.
Work on QEVDTIELTRQVKEKLAMNGICQRIFGEKVLGLSQGSVSDMLSRPKPWSKLTQKGREPFIRMQLWLNG [K18M] yielded an abundance fitness of -0.059 ± 0.068.
For QEVDTIELTRQVKEKLAQNGICQRIFGEKVLGLSQGSVSDMLSRPKPWSKLTQKGREPFIRMQLWLNG [K18Q], the abundance fitness was -0.134 ± 0.082.
QEVDTIELTRQVKEKLAKNGICQRIFGEKVLGLSQGSVSDMLSRPKPWSKLTQKGREPFIRMQLWLEG [N67E] gave an abundance fitness of 0.072 ± 0.12.
Work on QEVDTIELTRQVKEKLAKNGICQRIFGEKVLGLSQGSVSDMLSRPRPWSKLTQKGREPFIRMQLWLNG [K46R] yielded an abundance fitness of -0.099 ± 0.048.
QEVDTIELTRQVKEKLAKNGICQRIFGEKVLGLSQGSVSDMLSRPKPWSKLTQKGREPTIRMQLWLNG [F59T] gave an abundance fitness of -0.686 ± 0.12.
Work on QEVDTIELTRQVKEKLAKNGICQRIFGEKVLGLSQGSVSDMLSRPKPWSKLTQKGREPRIRMQLWLNG [F59R] yielded an abundance fitness of -0.7 ± 0.071.
For QEVDTIELTRQVKEKLAKNGICQRIVGEKVLGLSQGSVSDMLSRPKPWSKLTQKGREPFIRMQLWLNG [F26V], the abundance fitness was -0.648 ± 0.061.
For QEVDTIELTRQVKEKLAKNGICQRIKGEKVLGLSQGSVSDMLSRPKPWSKLTQKGREPFIRMQLWLNG [F26K], the abundance fitness was -0.45 ± 0.078.
QEVDTIELTRQVKEKLAKNGICQRIFGEKVLGLSQGSVSDMLSRCKPWSKLTQKGREPFIRMQLWLNG [P45C] showed an abundance fitness of -0.123 ± 0.06.
In the case of QEVDTIELTRQVKEKLAKNGICQRIFGEKVLGLSQGSVSDMLSRAKPWSKLTQKGREPFIRMQLWLNG [P45A], the abundance fitness is reported as -0.233 ± 0.084.
In the case of QEVDTIELTRQVKEKLAKNGICQRIFGEKVLGLSQGSVSDMLSRQKPWSKLTQKGREPFIRMQLWLNG [P45Q], the abundance fitness is reported as -0.461 ± 0.078.
With QDVDTIELTRQVKEKLAKNGICQRIFGEKVLGLSQGSVSDMLSRPKPWSKLTQKGREPFIRMQLWLNG [E2D] the abundance fitness was -0.283 ± 0.031.
Work on QWVDTIELTRQVKEKLAKNGICQRIFGEKVLGLSQGSVSDMLSRPKPWSKLTQKGREPFIRMQLWLNG [E2W] yielded an abundance fitness of -0.738 ± 0.033.
QEVDTIELTRQVKEKLAKNGICQRIFGEKVLGLSQGSVSDMLSRPKPWSKLTQKGREPFIWMQLWLNG [R61W] gave an abundance fitness of -0.619 ± 0.096.
Variant QEVVTIELTRQVKEKLAKNGICQRIFGEKVLGLSQGSVSDMLSRPKPWSKLTQKGREPFIRMQLWLNG [D4V] has an abundance fitness of -0.581 ± 0.052.
In the case of QEVWTIELTRQVKEKLAKNGICQRIFGEKVLGLSQGSVSDMLSRPKPWSKLTQKGREPFIRMQLWLNG [D4W], the abundance fitness is reported as -0.552 ± 0.078.
QEVDTIELTRQVKEKLAKNGICQRIFGEKVLGLSQGSVSDMLSRPKPWFKLTQKGREPFIRMQLWLNG [S49F] showed an abundance fitness of -0.19 ± 0.073.
In the case of QEVDTIELTRQVKEKLAKNGICQRIFGEKVLGLSQGSVSDMLSRPKPWSKLTQKGYEPFIRMQLWLNG [R56Y], the abundance fitness is reported as -0.444 ± 0.11.
Work on QEVDTIELTRQVKEKLAKNGICQRIFGEKVLGLSQGSVSDMLSRPKPWSKLTQKGVEPFIRMQLWLNG [R56V] yielded an abundance fitness of -0.39 ± 0.062.
For QEVDTIEPTRQVKEKLAKNGICQRIFGEKVLGLSQGSVSDMLSRPKPWSKLTQKGREPFIRMQLWLNG [L8P], the abundance fitness was -0.007 ± 0.062.
In the case of QEVDTIEWTRQVKEKLAKNGICQRIFGEKVLGLSQGSVSDMLSRPKPWSKLTQKGREPFIRMQLWLNG [L8W], the abundance fitness is reported as -0.157 ± 0.078.
QEVDTIELTRQVKEKLAKNGICQRIFGEKVLGLSQVSVSDMLSRPKPWSKLTQKGREPFIRMQLWLNG [G36V] gave an abundance fitness of -0.084 ± 0.055.
QEVDTGELTRQVKEKLAKNGICQRIFGEKVLGLSQGSVSDMLSRPKPWSKLTQKGREPFIRMQLWLNG [I6G] showed an abundance fitness of -0.049 ± 0.063.
Work on QEVDTIELTRQVKEKLAKNGQCQRIFGEKVLGLSQGSVSDMLSRPKPWSKLTQKGREPFIRMQLWLNG [I21Q] yielded an abundance fitness of -0.184 ± 0.072.
QEVDTIELTRQVKEKLAKNGGCQRIFGEKVLGLSQGSVSDMLSRPKPWSKLTQKGREPFIRMQLWLNG [I21G] gave an abundance fitness of -0.473 ± 0.071.
Variant QEVDTIELTRQVKEKLAKNGECQRIFGEKVLGLSQGSVSDMLSRPKPWSKLTQKGREPFIRMQLWLNG [I21E] has an abundance fitness of -0.22 ± 0.09.
QEVDTIELTRQVKEKLAKNGICQRIFGEKVLGLSQGSVSDMLSRPKPWSKTTQKGREPFIRMQLWLNG [L51T] gave an abundance fitness of -0.745 ± 0.12.
QEVDTIELTRQVKEKLAKNGICQRIFGEKVLGLSQGSVSDMLSRPKPWSKVTQKGREPFIRMQLWLNG [L51V] showed an abundance fitness of -0.394 ± 0.059.
With QEVDTIELTRQVKEKLAKNGICQRIFGEKVLGLSQGSVSDMLSRPKPWSKLPQKGREPFIRMQLWLNG [T52P] the abundance fitness was -0.343 ± 0.079.
Work on QEVDTIELTRQVKEKLAKNGICQRIFGEKVLGLSQGSVSDMLSRPKPWSKLEQKGREPFIRMQLWLNG [T52E] yielded an abundance fitness of -0.343 ± 0.084.
For QEVDTIELTRQVKEKLAKNGICQRIFGEKVLGLSQGSVSDMLSGPKPWSKLTQKGREPFIRMQLWLNG [R44G], the abundance fitness was -0.118 ± 0.044.
For QEVDTIELTRQVKEKLAKNGICQRIFGEKVLGLSQGSVSDMLSIPKPWSKLTQKGREPFIRMQLWLNG [R44I], the abundance fitness was -0.189 ± 0.1.
QEVDTIELTRQVKEKLAKNGICQRIFGEKVLGLSQGSVSDMLSEPKPWSKLTQKGREPFIRMQLWLNG [R44E] showed an abundance fitness of -0.176 ± 0.072.
With QEVDTIELTRQVKEKEAKNGICQRIFGEKVLGLSQGSVSDMLSRPKPWSKLTQKGREPFIRMQLWLNG [L16E] the abundance fitness was -0.032 ± 0.09.
Work on QEVDTIELTRQVKEKHAKNGICQRIFGEKVLGLSQGSVSDMLSRPKPWSKLTQKGREPFIRMQLWLNG [L16H] yielded an abundance fitness of 0.009 ± 0.099.
Variant QEVDTIELTSQVKEKLAKNGICQRIFGEKVLGLSQGSVSDMLSRPKPWSKLTQKGREPFIRMQLWLNG [R10S] has an abundance fitness of -0.111 ± 0.055.
